Test results taken from the Immune Epitope Database (IEDB).
One block for each sequence: values may come before it.

Key:
HLA-A*01:01 [1] = test: IEDB peptide-MHC binding, purified MHC/direct/fluorescence; filed as Kd, often an IC50 or EC50 that approximates it; ≥ and ≤ were set here for values at or beyond the usual limits of such assays; settings: source organism: Marburg virus - Musoke, Kenya, 1980
HLA-A*02:01 [2] = test: as above; settings: source organism: Marburg virus - Musoke, Kenya, 1980
HLA-A*11:01 [3] = test: as above; settings: source organism: Marburg virus - Musoke, Kenya, 1980
HLA-A*26:02 = test: as above; settings: source organism: Orthomarburgvirus marburgense
HLA-A*26:03 = test: as above; settings: source organism: Orthomarburgvirus marburgense
HLA-A*31:01 [4] = test: as above; settings: source organism: Marburg virus - Musoke, Kenya, 1980
HLA-A*69:01 = test: as above; settings: source organism: Marburg virus - Musoke, Kenya, 1980
HLA-B*07:02 [5] = test: as above; settings: source organism: Marburg virus - Musoke, Kenya, 1980
HLA-B*08:02 [6] = test: as above; settings: source organism: Orthomarburgvirus marburgense
HLA-B*08:03 [7] = test: as above; settings: source organism: Orthomarburgvirus marburgense
HLA-B*15:09 [8] = test: as above; settings: source organism: Orthomarburgvirus marburgense
HLA-B*15:17 [9] = test: as above; settings: source organism: Marburg virus - Musoke, Kenya, 1980
HLA-B*18:01 [10] = test: as above; settings: source organism: Marburg virus - Musoke, Kenya, 1980
HLA-B*27:05 [11] = test: as above; settings: source organism: Marburg virus - Musoke, Kenya, 1980
HLA-B*39:01 [12] = test: as above; settings: source organism: Orthomarburgvirus marburgense
HLA-B*40:01 [13] = test: as above; settings: source organism: Marburg virus - Musoke, Kenya, 1980
HLA-B*44:02 = test: as above; settings: source organism: Marburg virus - Musoke, Kenya, 1980
HLA-B*48:01 [14] = test: as above; settings: source organism: Marburg virus - Musoke, Kenya, 1980
HLA-B*57:01 [15] = test: as above; settings: source organism: Marburg virus - Musoke, Kenya, 1980
HLA-B*58:01 [16] = test: as above; settings: source organism: Marburg virus - Musoke, Kenya, 1980
HLA-A*68:02 = test: IEDB peptide-MHC binding, purified MHC/competitive/fluorescence; filed as Kd, often an IC50 or EC50 that approximates it; ≥ and ≤ were set here for values at or beyond the usual limits of such assays
HLA-B*38:01 = test: IEDB peptide-MHC binding, purified MHC/competitive/radioactivity; filed as Kd, often an IC50 or EC50 that approximates it; ≥ and ≤ were set here for values at or beyond the usual limits of such assays; settings: source organism: Homo sapiens
HLA-B*15:02 = test: IEDB peptide-MHC binding, purified MHC/competitive/fluorescence; filed as Kd, often an IC50 or EC50 that approximates it; ≥ and ≤ were set here for values at or beyond the usual limits of such assays; settings: source organism: Giardia lamblia ATCC 50803
HLA-A*01:01 [17] = test: as above; settings: source organism: Pleistophora sp. LS
HLA-A*02:01 [18] = test: as above; settings: source organism: Pleistophora sp. LS
HLA-A*02:03 = test: as above; settings: source organism: Pleistophora sp. LS
HLA-A*11:01 [19] = test: as above; settings: source organism: Pleistophora sp. LS
HLA-A*26:01 = test: as above; settings: source organism: Pleistophora sp. LS
HLA-A*30:01 = test: as above; settings: source organism: Pleistophora sp. LS
HLA-A*31:01 [20] = test: as above; settings: source organism: Pleistophora sp. LS
HLA-B*07:02 [21] = test: as above; settings: source organism: Pleistophora sp. LS
HLA-B*08:02 [22] = test: as above; settings: source organism: Pleistophora sp. LS
HLA-B*08:03 [23] = test: as above; settings: source organism: Pleistophora sp. LS
HLA-B*15:09 [24] = test: as above; settings: source organism: Pleistophora sp. LS
HLA-B*15:17 [25] = test: as above; settings: source organism: Pleistophora sp. LS
HLA-B*18:01 [26] = test: as above; settings: source organism: Pleistophora sp. LS
HLA-B*27:05 [27] = test: as above; settings: source organism: Pleistophora sp. LS
HLA-B*35:01 = test: as above; settings: source organism: Pleistophora sp. LS
HLA-B*39:01 [28] = test: as above; settings: source organism: Pleistophora sp. LS
HLA-B*40:01 [29] = test: as above; settings: source organism: Pleistophora sp. LS
HLA-B*48:01 [30] = test: as above; settings: source organism: Pleistophora sp. LS
HLA-B*57:01 [31] = test: as above; settings: source organism: Pleistophora sp. LS
HLA-B*58:01 [32] = test: as above; settings: source organism: Pleistophora sp. LS

Sequence: SEINNLNLT
- Kd (HLA-A*01:01 [1]): ≥ 20 µM
- Kd (HLA-A*02:01 [2]): ≥ 20 µM
- Kd (HLA-A*11:01 [3]): ≥ 20 µM
- Kd (HLA-A*26:02): ≥ 20 µM
- Kd (HLA-A*26:03): ≥ 20 µM
- Kd (HLA-A*31:01 [4]): ≥ 20 µM
- Kd (HLA-A*69:01): ≥ 20 µM
- Kd (HLA-B*07:02 [5]): ≥ 20 µM
- Kd (HLA-B*08:02 [6]): ≥ 20 µM
- Kd (HLA-B*08:03 [7]): ≥ 20 µM
- Kd (HLA-B*15:09 [8]): ≥ 20 µM
- Kd (HLA-B*15:17 [9]): ≥ 20 µM
- Kd (HLA-B*18:01 [10]): 8.07 µM
- Kd (HLA-B*27:05 [11]): ≥ 20 µM
- Kd (HLA-B*39:01 [12]): ≥ 20 µM
- Kd (HLA-B*40:01 [13]): 7 µM
- Kd (HLA-B*44:02): ≥ 20 µM
- Kd (HLA-B*48:01 [14]): ≥ 20 µM
- Kd (HLA-B*57:01 [15]): ≥ 20 µM
- Kd (HLA-B*58:01 [16]): ≥ 20 µM
- Kd (HLA-A*68:02; source organism: Orthomarburgvirus marburgense): ≥ 20 µM

- Kd (HLA-B*38:01): 2.48 µM
Sequence: SHETVTIEL

Sequence: TLAHTHAAY
- Kd (HLA-B*15:02): 0.0671 µM

- Kd (HLA-A*01:01 [17]): ≥ 20 µM
- Kd (HLA-A*02:01 [18]): 0.239 µM
- Kd (HLA-A*02:03): ≥ 20 µM
- Kd (HLA-A*11:01 [19]): ≥ 20 µM
- Kd (HLA-A*26:01): ≥ 20 µM
- Kd (HLA-A*30:01): ≥ 20 µM
- Kd (HLA-A*31:01 [20]): ≥ 20 µM
- Kd (HLA-A*68:02; source organism: Pleistophora sp. LS): ≥ 20 µM
- Kd (HLA-B*07:02 [21]): ≥ 20 µM
- Kd (HLA-B*08:02 [22]): ≥ 20 µM
- Kd (HLA-B*08:03 [23]): ≥ 20 µM
- Kd (HLA-B*15:09 [24]): ≥ 20 µM
- Kd (HLA-B*15:17 [25]): ≥ 20 µM
- Kd (HLA-B*18:01 [26]): ≤ 0.001 µM
- Kd (HLA-B*27:05 [27]): ≥ 20 µM
- Kd (HLA-B*35:01): ≥ 20 µM
- Kd (HLA-B*39:01 [28]): 0.949 µM
- Kd (HLA-B*40:01 [29]): 0.04 µM
- Kd (HLA-B*48:01 [30]): ≥ 20 µM
- Kd (HLA-B*57:01 [31]): ≥ 20 µM
- Kd (HLA-B*58:01 [32]): ≥ 20 µM
Sequence: VELQIGWTV
